In assay [1] the target is T1, IgG-Fc derived from anti-RSV monoclonal antibody (Palivizumab) (human, UniProt P01857-1 108-330 = IgG part, limits assumed).
T1 construct: domain: Fc region; Immobilized on a CM5 sensor tip by amine coupling; also called Anti-RSV antibody - Fc; Synagis Fc fragment
The experiment in a line: SPR Biacore 3000, Fc immobilized on CM5, peptide flown, 25° C., pH 7.4, 1:1 model. Here is the method: (§1) The affinity of the peptide obtained in the above-described Example 1(2) for the Fc region and Fab region of anti-RSV monoclonal antibody was evaluated using a biosensor Biacore3000 (manufactured by GE Healthcare Bioscience) utilizing surface plasmon resonance. In the present Example, the IgG-Fc or IgG-Fab obtained in the above-described Example 2(1) was immobilized on a sensor tip, and the peptide was flown on the tip to detect the interaction between the two. The IgG-Fab or IgG-Fc was immobilized on a sensor tip CM5 by amine coupling method using N-hydroxysuccinimide (NHS) and N-ethyl-N′-(3-dimethylaminopropyl)carbodiimide hydrochloride (EDC), and ethanolamine was used for blocking. All of the sensor tip and reagents for immobilization was manufactured by GE Healthcare Bioscience. The IgG-Fab solution was diluted to about 10 times using a buffer for immobilization (10 mM AcOH—AcONa, pH 4.5), and the IgG-Fab was immobilized on the sensor tip in accordance with the protocol attached to the Biacore 3000. In addition, a reference cell as negative control was also prepared by activating another flow cell on the tip with EDC/NHS and then immobilizing ethanolamine only. Peptide solutions having concentrations of 16 nM, 64 nM or 256 nM were prepared using a running buffer (20 mM NaH₂PO₄—Na₂HPO₄, 150 mM NaCl, 0.005% P-20, pH 7.4). Each peptide solution was added to the sensor tip in a flow rate of 40 μL/min for 1 minute. Bonding response curves at the time of addition (association phase, 1 minute) and after the addition (dissociation phase, 1 minute) were sequentially obtained at a measurement temperature of 25° C. After each measurement, about 20 mM NaOH was added for wash.
(In general: Surface plasmon resonance follows binding to a sensor surface in real time, without labels.)

For assay [2], the target named is T2, IgG-Fab prepared from anti-TNFα monoclonal antibody (Remicade).
T2 construct: Chimeric antibody; also called Anti-TNFα antibody - Fab; IgG-Fab of anti-TNFα monoclonal antibody
As to the kind of experiment: SPR Biacore 3000, Fab immobilized on CM5, peptide at 25, 100, 400 nM, 1:1 model. How it is done:
as §1, with “Peptide solutions having concentrations of 16 nM, 64 nM or 256 nM were prepared using a running buffer (20 mM NaH₂PO₄—Na₂HPO₄, 150 mM NaCl, 0.005% P-20, pH 7.4).” left out
(§2) Also, the affinity of the peptide according to the present invention (SEQ ID NO: 2) for IgG-Fab prepared from anti-EGFR monoclonal antibody (“Erbitux” sold by Bristol-Myers Squibb) and anti-TNFα monoclonal antibody (“Remicade” sold by Mitsubishi Tanabe Pharma Corporation) was evaluated.

The target of assay [3] is T3, IgG-Fab prepared from anti-EGFR monoclonal antibody (Erbitux).
T3 construct: Chimeric antibody; also called Anti-EGFR antibody - Fab
The assay is described as above. Here is the method:
as §1, with “Peptide solutions having concentrations of 16 nM, 64 nM or 256 nM were prepared using a running buffer (20 mM NaH₂PO₄—Na₂HPO₄, 150 mM NaCl, 0.005% P-20, pH 7.4).” left out
as §2

Assay [4] deals with T4, IgG-Fab derived from anti-RSV monoclonal antibody (Palivizumab).
T4 construct: Humanized monoclonal IgG fragmented with papain; Immobilized on a CM5 sensor tip; also called Anti-RSV antibody - Fab; Synagis Fab fragment
As to the kind of experiment: SPR Biacore 3000, Fab immobilized on CM5, peptide flown, 25° C., pH 7.4, 1:1 model. Here is the method: as §1

One molecule from US20180044401A1 (KANEKA, published 2018) can be followed below.

B1: immunoglobulin G-binding peptide having the amino acid sequence of SEQ ID NO: 2 (designed binder)
chain: GPLGSTTYKLILNGKTLTGYTTAIAADAATAEIVLKQFANDNGIDGEWTYDDATKTFTVTE
notes: Expressed as a GST fusion in E. coli; GST was cleaved off with PreScission Protease before the assay; also called SpG mutant
For the molecule B1, the Ka in assay [1] stood at 3.5e+06 M⁻¹; in assay [2], 4e+07 M⁻¹; in assay [3], 6.5e+07 M⁻¹; in assay [4] it was 2e+07 M⁻¹. The koff (commonly a measure of how fast the partners let go of each other) in assay [1] turned out to be 0.028 s⁻¹; in assay [2] it was 0.01 s⁻¹; in assay [3] it was 0.039 s⁻¹; in assay [4], 0.003 s⁻¹. The kon (in general, the rate constant with which the complex forms) came to 97000 M⁻¹ s⁻¹ in assay [1], 413000 M⁻¹ s⁻¹ in assay [2], 252000 M⁻¹ s⁻¹ in assay [3] and 66000 M⁻¹ s⁻¹ in assay [4].
